From patent publication JP2014141434A (dated 2014)

T1: rROBO4−ECD (ヒトROBO4細胞外領域ポリペプチド) (human, UniProt Q8WZ75 28-461)
T1 construct: It was cloned in pEF6/V5-His-TOPO; also called ヒトROBO4−ECD; rROBO4-ECD
T1 sequence: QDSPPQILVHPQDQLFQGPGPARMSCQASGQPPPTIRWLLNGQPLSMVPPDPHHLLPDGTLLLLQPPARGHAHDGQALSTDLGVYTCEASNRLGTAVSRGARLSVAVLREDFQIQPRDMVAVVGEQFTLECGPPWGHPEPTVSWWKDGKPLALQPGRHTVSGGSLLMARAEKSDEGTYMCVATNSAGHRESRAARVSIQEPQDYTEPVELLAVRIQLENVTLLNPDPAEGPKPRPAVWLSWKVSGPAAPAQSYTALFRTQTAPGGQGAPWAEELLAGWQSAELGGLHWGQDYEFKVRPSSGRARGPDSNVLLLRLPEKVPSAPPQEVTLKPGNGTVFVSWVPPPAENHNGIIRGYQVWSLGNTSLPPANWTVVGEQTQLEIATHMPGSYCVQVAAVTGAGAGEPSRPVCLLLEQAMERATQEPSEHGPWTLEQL


Biological target: T1, rROBO4−ECD (ヒトROBO4細胞外領域ポリペプチド)
Test: SPR, Biacore 3000; antibody captured by anti-human IgG on CM5 chip, rROBO4-ECD (0.1-200 nM) as analyte, 1:1 model

| Kd [nM] | Binder |
| --- | --- |
| 3.9 | ヒト化MAb1抗体 H−1140 (antibody, human IgG2, kappa, V domains shown, Humanised IgG2 / kappa; also called H-1140; hMAb1-H2 / hMAb1-L1) VH: EVQLVESGGGLVQPGGSLRLSCAASGFTFSTYAMSWVRQAPGKGLEWVATISQGGTYTYYPDSVKGRFTISRDNAKNTLYLQMNSLRAEDTAVYYCARLIYYDYLDYWGQGTLVTVSS VL: DIVMTQSPLSLPVTLGEPASISCRSSQSLENSNGNTYLNWYLQKPGQSPQLLIYRVSNRFSGVPDRFSGSGSGTDFTLKISRVEAEDVGVYYCLQVTHVPWTFGPGTKVDIKR |
| 0.41 | ヒト化MAb1抗体 H−1040 (antibody, human IgG2, kappa, V domains shown, Humanised IgG2 / kappa; also called H-1040; hMAb1-H1 / hMAb1-L1) VH: EVQLVESGGGLVQPGGSLRLSCAASGFTFSTYAMSWVRQAPGKGLEWVATISNGGTYTYYPDSVKGRFTISRDNAKNTLYLQMNSLRAEDTAVYYCARLIYYDYLDYWGQGTLVTVSS VL: DIVMTQSPLSLPVTLGEPASISCRSSQSLENSNGNTYLNWYLQKPGQSPQLLIYRVSNRFSGVPDRFSGSGSGTDFTLKISRVEAEDVGVYYCLQVTHVPWTFGPGTKVDIKR |
| 0.4 | ヒト化MAb1抗体 H−2040 (antibody, human IgG2, kappa, V domains shown, Humanised IgG2 / kappa; also called H-2040; hMAb1-H3 / hMAb1-L1) VH: EVQLVESGGGLVQPGGSLRLSCAASGFTFSTYAMSWVRQAPGKRLEWVATISNGGTYTYYPDSVKGRFTISRDNAKNTLYLQMNSLRAEDTAVYYCARLIYYDYLDYWGQGTLVTVSS VL: DIVMTQSPLSLPVTLGEPASISCRSSQSLENSNGNTYLNWYLQKPGQSPQLLIYRVSNRFSGVPDRFSGSGSGTDFTLKISRVEAEDVGVYYCLQVTHVPWTFGPGTKVDIKR |
